In the supplement of paper PMC10126150:
± gives the standard deviation of the averaged measurements.

Tested on: ATP
Experiment: switch fluorescence ratio, 500 uM ATP over buffer (Cy3 cluster intensity, sum of 5 cycles each) (fold (ratio)); higher = stronger signal-on switching upon ATP binding; sequences stand for … in TCGTCGGCAGCGTCAGATGTGTATAAGAGACAGTTTTTTTTTTTTTTTTTTTTTTTTT…TC
Conditions: aptamer strand: ATP DNA aptamer (quencher-CACCTGGGGGAGTATTGCGGAGGAAGG + anchor), 100 nM annealed; ATP concentration: 500 uM
How it was run: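 The quencher-labelled ATP aptamer, at 100 nM, was annealed to Cy3-labelled switching-strand clusters on a modified Illumina MiSeq flow-cell. The clusters were imaged in selection buffer, then after 15 min with 500 uM ATP at 22 °C, and this buffer/ATP cycle ran five times with NaOH stripping and re-annealing between runs. Per-cluster fluorescence ratios, summed target-cycle over summed buffer-cycle Cy3 intensity, were averaged per switch-domain sequence. Clusters outside 100-1000 RFU were excluded.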
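Note: ATP exposure 15 min at 22 °C before imaging.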

Point of comparison: GGTGGGGCAC, switch fluorescence ratio 0.999 ± 0.041. Against it:
- GGTACGAAAC — within error, 1.68 ± 0.75
- GGTACGAACG — higher, 1.29 ± 0.045
- GGTACGAGGT — within error, 0.972 ± 0.019
- GGTACGTGCA — within error, 0.99 ± 0.024
- GGTACGTTGG — within error, 1.02 ± 0.0078
- GGTACTAGGC — within error, 1.04 ± 0.08
- GGTACTGAGC — within error, 1.03 ± 0.061
- GGTACTTGGA — within error, 1.04 ± 0.032
- GGTACTTGTT — within error, 1.05 ± 0.052
- GGTAGAGCTG — within error, 1 ± 0.018
- GGTAGATGCG — within error, 1.03 ± 0.04
- GGTAGCAAGT — within error, 1.05 ± 0.034
- GGTAGCGAAA — within error, 1.009 ± 0.0051
- GGTAGGAAAC — within error, 0.994 ± 0.045
- GGTAGGGCGT — within error, 1.01 ± 0.027
- GGTAGGGGTT — within error, 1 ± 0.053
- GGTAGGTGGC — within error, 0.952 ± 0.027
- GGTAGGTGGG — within error, 1.01 ± 0.055
- GGTAGTACTG — within error, 0.995 ± 0.095
- GGTAGTTCCT — within error, 1.02 ± 0.013
- GGTAGTTGCC — within error, 1.02 ± 0.034
- GGTAGTTGTG — within error, 0.982 ± 0.013
- GGTATAGAGA — within error, 0.986 ± 0.051
- GGTATCAGGG — the same, 0.999 ± 0.022
- GGTATCCGGG — within error, 0.974 ± 0.019
- GGTATCTAGA — within error, 1.02 ± 0.0067
- GGTATCTTAG — within error, 0.9857 ± 0.0087
- GGTATGGTAC — higher, 1.086 ± 0.0055
- GGTATGTTAA — within error, 0.98 ± 0.014
- GGTATGTTTG — within error, 0.96 ± 0.043
- GGTATGTTTT — within error, 0.978 ± 0.037
- GGTATTCAGC — within error, 0.957 ± 0.052
- GGTATTGCGG — within error, 1.05 ± 0.023
- GGTATTGGAC — within error, 0.9947 ± 0.0058
- GGTATTGTAG — within error, 0.982 ± 0.025
- GGTATTGTGT — within error, 1.02 ± 0.028
- GGTATTTTTG — within error, 0.992 ± 0.019
- GGTCAGGCGA — within error, 0.989 ± 0.016
- GGTCAGTGTC — within error, 0.981 ± 0.052
- GGTCATGGGG — within error, 0.978 ± 0.023
- GGTCCAAGAT — within error, 0.9998 ± 0.0066
- GGTCCAGTGT — higher, 1.06 ± 0.016
- GGTCCTGTTT — within error, 0.994 ± 0.02
- GGTCGAGGGG — within error, 0.997 ± 0.021
- GGTCGATGAT — within error, 0.98739 ± 0.00068
- GGTCGCCTCA — within error, 0.9687 ± 0.0086
- GGTCGGGC — within error, 0.969 ± 0.03
- GGTCGGGGCG — within error, 1.02 ± 0.071
- GGTCGGGTTC — within error, 0.985 ± 0.015
- GGTCGGGTTG — within error, 0.979 ± 0.011
- GGTCGTAGGG — within error, 1.01 ± 0.016
- GGTCTAACAT — within error, 0.998 ± 0.015
- GGTCTACTTG — within error, 0.984 ± 0.057
- GGTCTAGAGA — within error, 0.98 ± 0.033
- GGTCTATCCG — within error, 0.983 ± 0.046
- GGTCTCAAGA — within error, 0.993 ± 0.023
- GGTCTCTTAC — within error, 1.02 ± 0.037
- GGTCTGGGGA — within error, 1.024 ± 0.0073
- GGTCTTGGCA — within error, 0.985 ± 0.052
- GGTCTTTTGT — within error, 0.998 ± 0.042
- GGTGAACTTT — within error, 0.964 ± 0.015
- GGTGAAGGCA — within error, 1 ± 0.023
- GGTGAAGGGG — within error, 1.15 ± 0.27
- GGTGAAGTGC — within error, 0.992 ± 0.068
- GGTGACTTGG — within error, 1.01 ± 0.055
- GGTGAGCCTT — within error, 0.987 ± 0.012
- GGTGAGGGAC — within error, 1.02 ± 0.011
- GGTGATGCGC — within error, 0.978 ± 0.034
- GGTGATGGGG — within error, 0.985 ± 0.038
- GGTGATGTGT — within error, 1.004 ± 0.0075
- GGTGATTGTG — within error, 0.9826 ± 0.004
- GGTGATTTAA — within error, 1.01 ± 0.012
- GGTGATTTAT — within error, 1.01 ± 0.029
- GGTGCATAGC — within error, 0.9714 ± 0.0074
- GGTGCATGAC — higher, 1.39 ± 0.0037
- GGTGCGGGGT — within error, 0.983 ± 0.016
- GGTGCTAGCG — within error, 1.0247 ± 0.00089
- GGTGCTTAGG — within error, 1.02 ± 0.024
- GGTGCTTGGT — within error, 0.989 ± 0.018
- GGTGGAAAGG — within error, 0.982 ± 0.043
- GGTGGAAGAG — within error, 0.982 ± 0.036
- GGTGGAAGCT — within error, 1.01 ± 0.025
- GGTGGAAGGG — within error, 0.975 ± 0.03
- GGTGGAATCA — within error, 0.9816 ± 0.0017
- GGTGGACAAC — within error, 0.997 ± 0.013
- GGTGGAGCCC — within error, 0.962 ± 0.04
- GGTGGAGGAA — within error, 1.027 ± 0.0053
- GGTGGAGGAG — within error, 0.979 ± 0.023
- GGTGGAGGGT — within error, 0.9938 ± 0.0025
- GGTGGATGCC — within error, 1.02 ± 0.04
- GGTGGATTGG — within error, 1.07 ± 0.1
- GGTGGCAGGA — within error, 1.01 ± 0.032
- GGTGGCGCTA — within error, 1.01 ± 0.02
- GGTGGGCGGG — within error, 1.01 ± 0.016
- GGTGGGGACG — within error, 0.974 ± 0.037
- GGTGGGGCCC — within error, 0.983 ± 0.032
- GGTGGGGGGA — within error, 1.01 ± 0.063
- GGTGGGGGT — within error, 1.35 ± 0.48
- GGTGGGTATA — within error, 1 ± 0.037
